Legend:
[1] = test system: c-Src; test: phosphorylation enrichment, bacterial display (enrichment ratio); higher = better substrate or ligand; peptides without Tyr show the background
[2] = test system: c-Abl (mouse); test: as above
[3] = test system: Fer (mouse); test: as above
[4] = target: Hck (UniProt P08631); test: as above
[5] = target: Jak2 (UniProt O60674); test: as above
[6] = test system: AncSZ; test: as above
[7] = target: MERTK (UniProt Q12866); test: as above
[8] = target: Fes (UniProt P07332); test: as above
[9] = target: Fyn (UniProt P06241); test: as above
[10] = target: FGFR3 (UniProt P22607); test: as above
[11] = target: EPHB1 (UniProt P54762); test: as above
[12] = target: FGFR1 (UniProt P11362); test: as above
[13] = target: EPHB2 (UniProt P29323); test: as above
[14] = target: SHP2-C SH2; test: SH2 binding enrichment of the phosphorylated peptide, bacterial display (enrichment ratio); higher = better substrate or ligand; peptides without Tyr show the background
[15] = target: c-Src SH2; test: as above
[16] = target: Grb2 SH2 (UniProt P62993); test: as above
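Wherever SH2 binding enrichment of the phosphorylated peptide, bacterial display is given: peptide library displayed on the E. coli surface as eCPX fusions, selected cells deep-sequenced, score is each peptide's frequency after selection divided by its frequency in the input.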
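Wherever phosphorylation enrichment, bacterial display is given: 11-residue human phosphosite peptides and single-mutation variants displayed on the E. coli surface, counted by deep sequencing, each peptide's frequency after selection divided by its frequency in the unselected input library; frequency after pTyr selection over input frequency; kinase dosed for 20-30% of maximal phosphorylation in three min.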

EPHB1, sequence (P54762 whole entry, looked up): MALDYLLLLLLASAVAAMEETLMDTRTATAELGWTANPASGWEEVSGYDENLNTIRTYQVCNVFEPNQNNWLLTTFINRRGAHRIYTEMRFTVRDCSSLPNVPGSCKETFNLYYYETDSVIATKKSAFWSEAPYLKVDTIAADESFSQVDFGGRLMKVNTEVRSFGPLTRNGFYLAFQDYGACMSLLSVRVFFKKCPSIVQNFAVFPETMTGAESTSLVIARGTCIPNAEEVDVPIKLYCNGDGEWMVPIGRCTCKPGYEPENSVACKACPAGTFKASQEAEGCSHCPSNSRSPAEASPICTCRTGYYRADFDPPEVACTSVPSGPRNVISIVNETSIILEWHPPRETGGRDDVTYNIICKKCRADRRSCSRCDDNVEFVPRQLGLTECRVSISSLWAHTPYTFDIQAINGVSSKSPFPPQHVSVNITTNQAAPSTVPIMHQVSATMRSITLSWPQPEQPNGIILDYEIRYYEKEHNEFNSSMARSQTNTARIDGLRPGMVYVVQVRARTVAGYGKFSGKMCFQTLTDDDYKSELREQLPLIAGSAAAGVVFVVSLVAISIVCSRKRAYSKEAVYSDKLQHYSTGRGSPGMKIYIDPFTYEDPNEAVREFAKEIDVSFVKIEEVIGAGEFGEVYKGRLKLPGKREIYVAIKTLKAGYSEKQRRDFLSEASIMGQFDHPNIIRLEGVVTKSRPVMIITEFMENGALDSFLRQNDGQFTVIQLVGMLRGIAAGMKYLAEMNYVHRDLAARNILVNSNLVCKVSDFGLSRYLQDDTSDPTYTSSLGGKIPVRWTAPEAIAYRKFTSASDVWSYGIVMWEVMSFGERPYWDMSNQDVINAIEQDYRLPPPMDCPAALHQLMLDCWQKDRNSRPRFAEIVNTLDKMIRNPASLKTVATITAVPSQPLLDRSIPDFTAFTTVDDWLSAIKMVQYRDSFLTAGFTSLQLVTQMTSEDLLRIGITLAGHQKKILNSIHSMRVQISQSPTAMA
Jak2, sequence (O60674 whole entry, looked up): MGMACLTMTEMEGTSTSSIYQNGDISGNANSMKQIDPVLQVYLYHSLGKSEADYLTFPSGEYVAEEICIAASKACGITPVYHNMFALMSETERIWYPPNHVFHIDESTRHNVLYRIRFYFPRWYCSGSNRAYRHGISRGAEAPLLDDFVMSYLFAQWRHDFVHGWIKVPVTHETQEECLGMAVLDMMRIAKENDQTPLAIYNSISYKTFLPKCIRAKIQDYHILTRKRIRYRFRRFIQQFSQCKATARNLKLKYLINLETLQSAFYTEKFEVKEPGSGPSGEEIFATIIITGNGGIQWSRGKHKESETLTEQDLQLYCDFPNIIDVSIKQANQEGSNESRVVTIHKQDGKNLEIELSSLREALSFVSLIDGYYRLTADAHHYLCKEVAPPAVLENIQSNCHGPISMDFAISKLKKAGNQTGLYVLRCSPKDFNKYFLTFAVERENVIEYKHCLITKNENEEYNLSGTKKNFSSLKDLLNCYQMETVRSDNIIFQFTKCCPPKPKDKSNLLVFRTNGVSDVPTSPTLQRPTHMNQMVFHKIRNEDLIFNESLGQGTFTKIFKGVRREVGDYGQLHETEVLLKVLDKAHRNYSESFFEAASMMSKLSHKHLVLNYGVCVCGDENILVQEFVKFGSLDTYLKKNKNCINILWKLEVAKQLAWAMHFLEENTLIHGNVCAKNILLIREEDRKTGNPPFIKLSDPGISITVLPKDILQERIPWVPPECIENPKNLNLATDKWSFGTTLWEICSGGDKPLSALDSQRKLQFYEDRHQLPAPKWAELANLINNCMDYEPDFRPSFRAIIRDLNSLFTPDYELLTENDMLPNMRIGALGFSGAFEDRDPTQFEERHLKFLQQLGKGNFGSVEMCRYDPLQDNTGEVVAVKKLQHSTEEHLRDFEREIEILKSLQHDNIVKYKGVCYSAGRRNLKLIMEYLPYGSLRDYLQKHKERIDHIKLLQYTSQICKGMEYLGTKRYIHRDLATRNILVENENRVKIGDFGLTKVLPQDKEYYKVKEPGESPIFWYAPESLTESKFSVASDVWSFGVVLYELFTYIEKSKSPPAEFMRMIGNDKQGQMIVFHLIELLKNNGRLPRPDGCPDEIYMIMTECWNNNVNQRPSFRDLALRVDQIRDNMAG
Fes, sequence (P07332 whole entry, looked up): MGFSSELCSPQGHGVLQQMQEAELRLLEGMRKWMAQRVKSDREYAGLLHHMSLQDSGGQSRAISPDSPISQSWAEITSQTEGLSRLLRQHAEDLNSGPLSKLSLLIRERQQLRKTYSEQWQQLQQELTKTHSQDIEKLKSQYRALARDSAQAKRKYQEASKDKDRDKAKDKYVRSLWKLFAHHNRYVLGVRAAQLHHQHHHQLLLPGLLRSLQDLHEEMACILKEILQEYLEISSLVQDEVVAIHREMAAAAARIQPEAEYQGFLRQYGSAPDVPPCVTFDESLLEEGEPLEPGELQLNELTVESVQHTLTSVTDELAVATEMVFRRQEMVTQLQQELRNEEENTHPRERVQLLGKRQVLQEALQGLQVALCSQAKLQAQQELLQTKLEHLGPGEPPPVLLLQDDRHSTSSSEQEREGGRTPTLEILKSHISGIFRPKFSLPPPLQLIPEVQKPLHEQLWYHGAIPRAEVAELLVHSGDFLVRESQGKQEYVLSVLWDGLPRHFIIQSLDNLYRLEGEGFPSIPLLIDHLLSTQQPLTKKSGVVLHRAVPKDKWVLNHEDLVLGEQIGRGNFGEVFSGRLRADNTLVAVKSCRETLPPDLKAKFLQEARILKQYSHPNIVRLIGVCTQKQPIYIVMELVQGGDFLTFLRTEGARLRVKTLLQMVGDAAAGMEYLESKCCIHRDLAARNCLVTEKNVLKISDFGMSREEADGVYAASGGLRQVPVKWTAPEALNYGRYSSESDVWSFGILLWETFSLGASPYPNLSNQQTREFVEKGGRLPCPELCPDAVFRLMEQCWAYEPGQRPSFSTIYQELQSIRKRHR
FGFR1, sequence (P11362 whole entry, looked up): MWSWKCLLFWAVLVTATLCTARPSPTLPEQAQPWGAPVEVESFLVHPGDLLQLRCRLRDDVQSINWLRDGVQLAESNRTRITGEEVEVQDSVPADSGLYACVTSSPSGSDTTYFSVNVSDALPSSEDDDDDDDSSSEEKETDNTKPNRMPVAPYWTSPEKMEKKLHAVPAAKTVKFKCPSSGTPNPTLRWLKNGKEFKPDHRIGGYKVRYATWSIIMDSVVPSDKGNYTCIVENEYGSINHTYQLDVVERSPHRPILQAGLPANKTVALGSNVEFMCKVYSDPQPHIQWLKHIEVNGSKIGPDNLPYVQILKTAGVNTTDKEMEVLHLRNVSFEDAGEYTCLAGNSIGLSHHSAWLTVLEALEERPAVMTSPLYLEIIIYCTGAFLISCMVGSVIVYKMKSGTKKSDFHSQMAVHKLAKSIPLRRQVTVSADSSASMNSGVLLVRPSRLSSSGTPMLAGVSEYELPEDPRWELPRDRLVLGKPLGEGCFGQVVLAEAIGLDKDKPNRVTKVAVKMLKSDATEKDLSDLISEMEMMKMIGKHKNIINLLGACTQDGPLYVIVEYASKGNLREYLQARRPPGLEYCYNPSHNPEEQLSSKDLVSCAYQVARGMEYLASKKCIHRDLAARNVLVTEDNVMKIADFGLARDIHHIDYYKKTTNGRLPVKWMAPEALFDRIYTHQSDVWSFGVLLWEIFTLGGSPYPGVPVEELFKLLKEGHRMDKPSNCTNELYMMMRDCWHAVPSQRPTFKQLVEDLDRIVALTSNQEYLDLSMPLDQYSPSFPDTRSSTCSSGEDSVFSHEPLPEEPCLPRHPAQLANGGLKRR
MERTK, sequence (Q12866 whole entry, looked up): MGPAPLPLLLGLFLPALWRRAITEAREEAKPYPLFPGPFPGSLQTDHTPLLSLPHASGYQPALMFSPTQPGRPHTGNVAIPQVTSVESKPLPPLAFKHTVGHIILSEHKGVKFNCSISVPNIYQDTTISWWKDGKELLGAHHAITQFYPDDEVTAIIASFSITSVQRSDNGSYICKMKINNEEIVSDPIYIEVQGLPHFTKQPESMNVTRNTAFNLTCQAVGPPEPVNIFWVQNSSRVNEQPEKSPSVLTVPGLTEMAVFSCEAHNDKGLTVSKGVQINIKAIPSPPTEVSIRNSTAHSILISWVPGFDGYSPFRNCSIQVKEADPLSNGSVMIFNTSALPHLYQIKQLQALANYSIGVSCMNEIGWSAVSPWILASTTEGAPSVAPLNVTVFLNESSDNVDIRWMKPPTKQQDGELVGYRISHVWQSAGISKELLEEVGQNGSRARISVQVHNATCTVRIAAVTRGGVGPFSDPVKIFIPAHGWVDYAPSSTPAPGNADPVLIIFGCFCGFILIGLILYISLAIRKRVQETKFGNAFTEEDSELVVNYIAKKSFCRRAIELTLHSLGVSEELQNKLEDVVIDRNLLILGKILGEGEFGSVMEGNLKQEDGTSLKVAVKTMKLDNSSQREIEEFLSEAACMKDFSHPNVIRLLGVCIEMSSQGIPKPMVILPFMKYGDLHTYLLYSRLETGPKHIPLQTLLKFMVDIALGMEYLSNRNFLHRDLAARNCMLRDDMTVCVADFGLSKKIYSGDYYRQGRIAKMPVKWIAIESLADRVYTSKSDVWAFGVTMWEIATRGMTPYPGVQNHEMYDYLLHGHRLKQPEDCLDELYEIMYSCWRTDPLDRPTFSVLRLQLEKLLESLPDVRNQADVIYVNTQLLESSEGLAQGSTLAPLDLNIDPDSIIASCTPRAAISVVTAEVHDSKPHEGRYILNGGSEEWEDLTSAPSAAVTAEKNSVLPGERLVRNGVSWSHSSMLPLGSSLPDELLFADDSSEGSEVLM

Row | Sequence | SH2 binding enrichment [14] | SH2 binding enrichment [15] | SH2 binding enrichment [16] | phosphorylation enrichment [1] | phosphorylation enrichment [2] | phosphorylation enrichment [3] | phosphorylation enrichment [4] | phosphorylation enrichment [5] | phosphorylation enrichment [6] | phosphorylation enrichment [7] | phosphorylation enrichment [8] | phosphorylation enrichment [9] | phosphorylation enrichment [10] | phosphorylation enrichment [11] | phosphorylation enrichment [12] | phosphorylation enrichment [13]
1 | LYSNAYLSDLA [ALDH1A1_Y119_N121S] | 0.782 | 1.11 | 0.94 | 1.96 | 0.618 | 7.25 | 3.5 | 0.945 | 1.68 | 8.43 | 1.01 | 3.58 | 1.23 | 2.99 | 1.14 | 1.45
2 | LLREWYMIISR [HUWE1_Y4066] | 1.5 | 1.37 | 1.71 | 0.419 | 0.931 | 0.723 | 0.441 | 1.3 | 1.35 | 0.433 | 1.45 | 0.588 | 1.1 | 0.703 | 0.708 | 0.792
3 | TFYQMYDKGLV [IARS2_Y231] | 1.29 | 0.838 | 0.941 | 3.71 | 0.91 | 1.33 | 3.46 | 0.797 | 1.38 | 7.11 | 0.916 | 3.3 | 1.25 | 2.49 | 0.986 | 3.66
4 | KLPYPYDDPFS [GPX2_Y127] | 0.544 | 3.58 | 0.97 | 0.546 | 0.705 | 0.434 | 0.589 | 0.954 | 1.09 | 0.515 | 1.06 | 0.534 | 0.745 | 0.458 | 0.507 | 0.532
5 | IMAYFYMCDRA [CASD1_Y382] | 1.02 | 0.87 | 1.14 | 0.487 | 1 | 0.614 | 0.401 | 1.46 | 1.11 | 0.494 | 1.45 | 0.421 | 1.23 | 0.803 | 1.09 | 0.641
6 | VVLEDYLDIKN [CLCNKB_Y138] | 0.786 | 0.497 | 0.747 | 0.421 | 0.576 | 0.391 | 0.434 | 1.07 | 1.02 | 0.464 | 1.2 | 0.534 | 0.608 | 0.499 | 0.668 | 0.671
7 | ADRSCYDLSCH [GARS1_Y467] | 0.968 | 0.985 | 0.79 | 0.472 | 0.631 | 0.431 | 0.561 | 0.798 | 0.92 | 0.457 | 0.91 | 0.604 | 0.586 | 0.486 | 0.433 | 0.528
8 | RPSRWYQFPVA [ANOS1_Y259_R262P] | 2.07 | 1.71 | 1.79 | 0.648 | 0.657 | 0.692 | 0.5 | 0.914 | 2.95 | 7.23 | 0.889 | 0.496 | 1.38 | 0.403 | 2.41 | 0.433
9 | RPASVYTKRCS [CPT2_Y508] | 0.643 | 0.622 | 1.1 | 0.476 | 0.687 | 0.459 | 0.418 | 0.444 | 0.781 | 0.442 | 0.826 | 0.623 | 0.533 | 0.377 | 0.586 | 0.603
10 | NVADHYRVFKP [ATP6V0D2_Y271_G272R_YF] | 0.624 | 0.397 | 0.842 | 0.471 | 0.686 | 0.404 | 0.418 | 0.582 | 0.708 | 0.644 | 0.616 | 0.391 | 0.608 | 0.404 | 0.459 | 0.361
11 | WHYTFYNELRV [ACTC1_Y93_H90Y] | 0.779 | 0.572 | 0.992 | 0.619 | 0.979 | 0.651 | 0.67 | 1.27 | 1.39 | 0.869 | 1.42 | 0.461 | 1.03 | 1.31 | 0.686 | 0.678
12 | EGNERYEGYCV [GRIA3_Y451] | 0.693 | 2.3 | 0.881 | 0.579 | 0.761 | 0.579 | 0.574 | 0.944 | 0.982 | 0.418 | 1.14 | 0.544 | 0.742 | 0.542 | 0.575 | 0.562
13 | NFFDTYIKTCL [IQGAP2_Y1445_YF] | 0.752 | 0.528 | 0.85 | 0.54 | 0.843 | 0.555 | 0.587 | 1.34 | 1.3 | 0.496 | 1.34 | 0.456 | 0.815 | 0.736 | 0.508 | 0.731
14 | FCRIMYDIFPF [INTS13_Y67_YF] | 0.862 | 0.8 | 0.93 | 3 | 1.38 | 1.18 | 3.11 | 1.57 | 1.71 | 4.83 | 1.74 | 1.31 | 0.743 | 2.66 | 0.531 | 2.61
15 | YGPPQYNMQYS [ERBB2IP_Y977_I979M] | 0.661 | 0.434 | 0.849 | 0.499 | 0.481 | 0.499 | 0.746 | 0.496 | 0.794 | 0.478 | 0.577 | 0.547 | 0.448 | 0.472 | 0.442 | 0.426
16 | MEYLPYGSLRD [JAK2_Y934] | 1.19 | 0.498 | 0.723 | 4.9 | 1.02 | 1.25 | 5.07 | 1.41 | 1.45 | 0.511 | 1.26 | 4.56 | 1.02 | 2.63 | 1.15 | 1.41

Further lines, with some results ahead:

Row | SH2 binding enrichment [14] | SH2 binding enrichment [15] | SH2 binding enrichment [16] | Sequence | phosphorylation enrichment [1] | phosphorylation enrichment [2] | phosphorylation enrichment [3] | phosphorylation enrichment [4] | phosphorylation enrichment [5] | phosphorylation enrichment [6] | phosphorylation enrichment [7] | phosphorylation enrichment [8] | phosphorylation enrichment [9] | phosphorylation enrichment [10] | phosphorylation enrichment [11] | phosphorylation enrichment [12] | phosphorylation enrichment [13]
17 | 0.794 | 18 | 1.08 | EADRKYEEVAR [TPM3_Y163] | 0.625 | 1.08 | 0.712 | 0.663 | 1.19 | 1.29 | 0.598 | 1.46 | 0.58 | 0.895 | 0.764 | 0.637 | 0.742
18 | 0.767 | 0.591 | 0.821 | GGQEDYDRLRP [RAC3_Y64_A59G] | 0.494 | 0.616 | 0.522 | 0.759 | 0.861 | 1.17 | 0.461 | 0.948 | 0.458 | 0.624 | 0.566 | 0.528 | 0.691
19 | 0.587 | 1.65 | 0.662 | RSIGEYDVLRG [PRKDC_Y2936] | 0.974 | 1.55 | 0.428 | 3.99 | 0.73 | 0.795 | 0.536 | 0.786 | 0.671 | 0.394 | 0.738 | 0.36 | 0.779
20 | 0.641 | 0.806 | 1.04 | IVFTSYVLTIL [TAS2R16_Y239_F240V] | 0.55 | 1.05 | 0.731 | 0.623 | 1.55 | 1.41 | 0.526 | 1.73 | 0.667 | 1.17 | 0.884 | 0.71 | 0.794
21 | 1.29 | 0.912 | 1.13 | CENCHYPILPL [LCK_Y25_V28L] | 0.436 | 0.607 | 0.423 | 0.746 | 0.718 | 0.678 | 0.357 | 0.903 | 0.391 | 0.632 | 0.43 | 0.541 | 0.422
22 | 0.867 | 0.517 | 0.888 | SLGKGYSVGGC [MC4R_Y35_D37V] | 0.384 | 0.593 | 0.484 | 0.434 | 0.846 | 0.724 | 0.354 | 0.898 | 0.432 | 0.627 | 0.523 | 0.456 | 0.501
23 | 1.61 | 0.919 | 1.26 | QTLEAYIRWNK [SPAST_Y604] | 0.488 | 0.913 | 0.62 | 0.472 | 1.09 | 1.2 | 0.45 | 1.44 | 0.452 | 0.935 | 0.703 | 0.615 | 0.588
24 | 2.04 | 11 | 1.01 | CTTSHYNYMCN [TP53_Y234_I232S] | 0.441 | 0.515 | 0.55 | 0.563 | 0.537 | 0.896 | 0.549 | 0.755 | 0.49 | 0.649 | 0.741 | 0.569 | 0.534
25 | 1.14 | 0.716 | 1.34 | MTFVFYRENLR [NLRP14_Y443_YF] | 0.288 | 0.668 | 0.576 | 0.525 | 1.13 | 1.42 | 0.369 | 1.34 | 0.48 | 0.927 | 0.585 | 0.562 | 0.719
26 | 0.529 | 0.582 | 0.925 | FSAPNCCYRCG [PPP2CA_Y265_Y265C] | 0.5 | 0.833 | 0.547 | 0.55 | 1.02 | 1 | 0.505 | 1.21 | 0.518 | 0.76 | 0.671 | 0.489 | 0.676
27 | 0.665 | 0.535 | 0.924 | LWPIWYSCHRP [MRGPRX1_Y130_R131S] | 0.601 | 0.943 | 0.881 | 0.601 | 1.27 | 1.82 | 0.687 | 1.97 | 0.519 | 1.04 | 0.83 | 0.643 | 0.694
28 | 1.21 | 0.487 | 0.767 | PESIMYWKFTT [NTRK3_Y744_R745W] | 3.1 | 2.36 | 1.53 | 1.96 | 2.76 | 2.52 | 0.851 | 2.81 | 1.85 | 1.55 | 0.92 | 1.09 | 1.22
29 | 14.7 | 1.28 | 0.895 | GLTSTYAGIRK [ROBO1_Y932] | 1.52 | 0.724 | 0.521 | 6.69 | 0.548 | 0.525 | 0.497 | 0.66 | 1.46 | 0.372 | 0.303 | 0.342 | 0.492
30 | 0.459 | 1.98 | 0.778 | LVKDPYVMFPQ [PLEKHG2_Y489_P484L] | 3.86 | 0.943 | 1.12 | 2.48 | 1.79 | 1.45 | 0.997 | 1.93 | 4.32 | 3.42 | 0.91 | 7.45 | 0.608
31 | 1.32 | 1.26 | 1.46 | LRWREYQRQDY [PRKRIP1_Y90_R87W] | 0.486 | 0.737 | 0.376 | 0.453 | 0.997 | 1.12 | 0.409 | 0.957 | 0.574 | 0.585 | 0.439 | 0.626 | 0.761
32 | 0.57 | 1.12 | 0.889 | SVVVPYERPEV [TP53_Y220_P222R] | 0.432 | 0.731 | 0.51 | 0.502 | 0.846 | 0.958 | 0.401 | 0.988 | 0.475 | 0.627 | 0.439 | 0.495 | 0.513
33 | 0.635 | 1.09 | 0.96 | VVEFGYEFFAK [PPP1CB_Y254_D252Y_YF] | 0.503 | 0.965 | 0.553 | 0.559 | 1.41 | 1.52 | 0.488 | 1.26 | 0.573 | 0.829 | 0.583 | 0.558 | 0.52

Reference: the supplement of paper PMC10065799, “High-throughput profiling of sequence recognition by tyrosine kinases and SH2 domains using bacterial peptide display” (eLife, 2023)
